# Key:
# [1] = molecular target: FadD5(1-448), N-terminal domain construct of Mycobacterium tuberculosis FadD5 (Mycobacterium tuberculosis H37Rv); experiment: SEC-MALS
# [2] = molecular target: Mycobacterium tuberculosis FadD5 (fatty acyl-CoA synthetase, Rv0166), full length (Mycobacterium tuberculosis H37Rv); experiment: native gel or EMSA
# [3] = molecular target: Mycobacterium tuberculosis FadD5 (fatty acyl-CoA synthetase, Rv0166), full length (Mycobacterium tuberculosis H37Rv); experiment: SAXS
# [4] = molecular target: Mycobacterium tuberculosis FadD5 (fatty acyl-CoA synthetase, Rv0166), full length (Mycobacterium tuberculosis H37Rv); experiment: SEC-MALS
Substance,stoichiometry N [1],stoichiometry N [2],stoichiometry N [3],stoichiometry N [4]
"FadD5(1-448), N-terminal domain construct of Mycobacterium tuberculosis FadD5 (domain or fragment)",2,,,
"Mycobacterium tuberculosis FadD5 (fatty acyl-CoA synthetase, Rv0166), full length (enzyme)",,2,2,2
